Where a chain is given by its changes, count along the chain named.
B1: GpH7-A5/GpH7-B3 variant S324_19Q/GpL16-k0 (antibody, human IgG1, kappa)
heavy 1: not shown
heavy 2: not shown
light: DIVMTQSPLSLPVTPGEPASISCQASESLVHSNRNTYLHWYLQKPGQSPQLLIYKVSNRFSGVPDRFSGSGSGTDFTLKISRVEAEDVGVYYCSQNTHVPPTFGQGTKVEIERTVAAPSVFIFPPSDEQLKSGTASVVCLLNNFYPREAKVQWKVDNALQSGNSQESVTEQDSKDSTYSLSSTLTLSKADYEKHKVYACEVTHQGLSSPVTKSFNRGEC
notes: He Ab: heterodimerized IgG1, one H chain mutated
B2: GpH7-A5/GpH7-B3 variant Y296_01G/GpL16-k0 (antibody, human IgG1, kappa)
heavy 1: not shown
heavy 2: not shown
light: B1 light
notes: as for B1
B3: GpH7-A5/GpH7-B3 variant Y296_16H/GpL16-k0 (antibody, human IgG1, kappa)
heavy 1: not shown
heavy 2: not shown
light: B1 light
notes: as for B1
B4: GpH7-A5/GpH7-B3 variant Y296_11K/GpL16-k0 (antibody, human IgG1, kappa)
heavy 1: not shown
heavy 2: not shown
light: B1 light
notes: as for B1
B5: GpH7-A5/GpH7-B3 variant Y296_06M/GpL16-k0 (antibody, human IgG1, kappa)
heavy 1: not shown
heavy 2: not shown
light: B1 light
notes: as for B1
B6: GpH7-A5/GpH7-B3 variant Y296_09D/GpL16-k0 (antibody, human IgG1, kappa)
heavy 1: not shown
heavy 2: not shown
light: B1 light
notes: as for B1
B7: GpH7-A5/GpH7-B3 variant Y296_13S/GpL16-k0 (antibody, human IgG1, kappa)
heavy 1: not shown
heavy 2: not shown
light: B1 light
notes: as for B1
B8: GpH7-A5/GpH7-B3 variant Y296_14T/GpL16-k0 (antibody, human IgG1, kappa)
heavy 1: not shown
heavy 2: not shown
light: B1 light
notes: as for B1
B9: GpH7-A5/GpH7-B3 variant Y296_02A/GpL16-k0 (antibody, human IgG1, kappa)
heavy 1: not shown
heavy 2: not shown
light: B1 light
notes: as for B1
B10: GpH7-A5/GpH7-B3 variant Y296_03V/GpL16-k0 (antibody, human IgG1, kappa)
heavy 1: not shown
heavy 2: not shown
light: B1 light
notes: as for B1
B11: GpH7-A5/GpH7-B3 variant Y296_12R/GpL16-k0 (antibody, human IgG1, kappa)
heavy 1: not shown
heavy 2: not shown
light: B1 light
notes: as for B1
B12: GpH7-A5/GpH7-B3 variant Y296_04F/GpL16-k0 (antibody, human IgG1, kappa)
heavy 1: not shown
heavy 2: not shown
light: B1 light
notes: as for B1
B13: GpH7-A5/GpH7-B3 variant Y296_07I/GpL16-k0 (antibody, human IgG1, kappa)
heavy 1: not shown
heavy 2: not shown
light: B1 light
notes: as for B1
B14: GpH7-A5/GpH7-B3 variant Y296_08L/GpL16-k0 (antibody, human IgG1, kappa)
heavy 1: not shown
heavy 2: not shown
light: B1 light
notes: as for B1
B15: GpH7-A5/GpH7-B3 variant Y296_10E/GpL16-k0 (antibody, human IgG1, kappa)
heavy 1: not shown
heavy 2: not shown
light: B1 light
notes: as for B1

molecular target: T1, FcγRIIa(R) (human, UniProt P12318 34-217); experiment: SPR, relative to GpH7-A5/GpH7-B3/GpL16-k0 =100
T1 construct: extracellular domain; also called 2aR
T1 sequence: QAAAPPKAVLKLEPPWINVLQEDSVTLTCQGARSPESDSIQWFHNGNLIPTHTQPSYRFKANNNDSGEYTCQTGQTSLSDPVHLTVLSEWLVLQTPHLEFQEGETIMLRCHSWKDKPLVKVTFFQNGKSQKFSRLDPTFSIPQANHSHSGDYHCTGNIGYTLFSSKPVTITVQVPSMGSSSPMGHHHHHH

Point of comparison: B11, “He/Con 2aR” value 95.3%. Against it:
- B1 — lower, 86.8%
- B2 — lower, 91.6%
- B3 — higher, 100%
- B4 — lower, 90.3%
- B5 — higher, 96.8%
- B6 — higher, 101%
- B7 — higher, 97.5%
- B8 — higher, 98.6%
- B9 — lower, 93%
- B10 — lower, 92%
- B12 — higher, 105%
- B13 — higher, 96.7%
- B14 — lower, 93.7%
- B15 — higher, 98.2%

molecular target: T2, FcγRIIa(H) (human, UniProt P12318 34-217); experiment: SPR, relative to GpH7-A5/GpH7-B3/GpL16-k0 =100
T2 construct: extracellular domain; also called 2aH
T2 sequence: T1 sequence with R134H

Point of comparison: B7, “He/Con 2aH” value 96.1%. Against it:
- B1 — higher, 106%
- B2 — lower, 91.6%
- B3 — higher, 101%
- B4 — lower, 83.7%
- B5 — lower, 94.2%
- B6 — higher, 102%
- B8 — higher, 97.2%
- B9 — lower, 89.1%
- B10 — lower, 86.9%
- B11 — lower, 89.1%
- B12 — higher, 97.8%
- B13 — lower, 92.7%
- B14 — lower, 86.9%
- B15 — lower, 94%

molecular target: T3, FcγRIIb (human, UniProt P31994 43-217); experiment: SPR, relative to GpH7-A5/GpH7-B3/GpL16-k0 =100
T3 construct: extracellular domain; also called 2b
T3 sequence: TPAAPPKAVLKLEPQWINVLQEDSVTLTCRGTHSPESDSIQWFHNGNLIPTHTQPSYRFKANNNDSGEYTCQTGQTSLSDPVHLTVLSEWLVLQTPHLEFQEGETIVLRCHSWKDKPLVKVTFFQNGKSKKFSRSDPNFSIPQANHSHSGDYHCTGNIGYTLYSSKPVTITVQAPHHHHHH

Point of comparison: B15, “He/Con 2b” value 99.4%. Against it:
- B1 — lower, 87.2%
- B2 — lower, 80.4%
- B3 — lower, 93.5%
- B4 — lower, 73.8%
- B5 — lower, 89%
- B6 — higher, 100%
- B7 — lower, 87.5%
- B8 — lower, 89.4%
- B9 — lower, 83.1%
- B10 — lower, 80.4%
- B11 — lower, 80.5%
- B12 — higher, 101%
- B13 — lower, 85.5%
- B14 — lower, 83.5%

molecular target: T4, FcγRIa (human, UniProt P12314 16-292); experiment: SPR, relative to GpH7-A5/GpH7-B3/GpL16-k0 =100
T4 construct: extracellular domain; also called 1a
T4 sequence (P12314 other isoform, or with tags, fused parts or gaps): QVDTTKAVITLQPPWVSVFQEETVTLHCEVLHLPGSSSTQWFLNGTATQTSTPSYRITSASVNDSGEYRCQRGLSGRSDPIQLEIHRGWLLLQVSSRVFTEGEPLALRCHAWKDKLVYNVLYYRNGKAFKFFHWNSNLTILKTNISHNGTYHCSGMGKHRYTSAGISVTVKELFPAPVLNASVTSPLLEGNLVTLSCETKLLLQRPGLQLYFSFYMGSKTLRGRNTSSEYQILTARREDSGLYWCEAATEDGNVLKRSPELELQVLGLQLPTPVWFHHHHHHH

Point of comparison: B10, “He/Con 1a” value 101%. Against it:
- B1 — higher, 106%
- B2 — lower, 99.4%
- B3 — higher, 103%
- B4 — higher, 102%
- B5 — the same, 101%
- B6 — higher, 103%
- B7 — higher, 102%
- B8 — higher, 102%
- B9 — lower, 99.8%
- B11 — higher, 103%
- B12 — the same, 101%
- B13 — the same, 101%
- B14 — the same, 101%
- B15 — higher, 102%

Reference: patent US20260167699A1 (Chugai, published 2026)
